Measured values from publication PMC8985661.

How the values were obtained:
[1] = target: microtubules (MTs; α-tubulin/β-tubulin) (UniProt P02554); assay: other fluorescence titration; fluorescently labeled MAP7 on MTs at different concentrations, fluorescence intensity fit to the Hill equation; 150 mM KAc
[2] = target: microtubules (MTs; α-tubulin/β-tubulin) (UniProt P02554)

Kd [1]: 0.111 µM
half-max inhibition constant of the run frequency of dynein-dynactin-BicDR1 (DDR) on MTs against MAP7 concentration (blocks dynein on MTs); 150 mM KAc [2]: 10 nM
Substance: full-length (FL) MAP7 (from UniProt Q14244 1-749) (natural protein)
